Assay results taken from IntAct's records for PubMed 21637298.

Assays:
xrcc4_human XRCC4 [1] = target: xrcc4_human XRCC4 (UniProt Q13426)
xrcc4_human XRCC4 [2] = target: xrcc4_human XRCC4 (UniProt Q13426); remark: listed apart in the source

xrcc4_human XRCC4, sequence (Q13426 whole entry): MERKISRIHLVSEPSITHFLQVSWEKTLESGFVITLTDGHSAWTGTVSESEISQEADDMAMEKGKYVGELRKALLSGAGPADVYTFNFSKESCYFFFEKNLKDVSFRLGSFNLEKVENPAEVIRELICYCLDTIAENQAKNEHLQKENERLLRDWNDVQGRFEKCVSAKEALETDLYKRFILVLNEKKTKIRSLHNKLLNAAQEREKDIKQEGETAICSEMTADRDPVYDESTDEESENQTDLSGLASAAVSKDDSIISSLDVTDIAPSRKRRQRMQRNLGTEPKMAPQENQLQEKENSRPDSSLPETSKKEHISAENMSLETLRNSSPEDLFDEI

Substance	effect of a mutation on the interaction (xrcc4_human XRCC4 [1])	effect of a mutation on the interaction (xrcc4_human XRCC4 [2])
Bifunctional polynucleotide phosphatase/kinase (Homo sapiens), Q96T60 S114A	decreasing interaction	–
Bifunctional polynucleotide phosphatase/kinase (Homo sapiens), Q96T60 S126A	–	decreasing interaction
